The target of one experiment is T1, Cynomolgus monkey BCMA (cynomolgus monkey).
T1 construct: Soluble analyte in SPR; also called cyBCMA; Cyno BCMA
The experiment can be described thus: SPR, IgG immobilised, cyno BCMA analyte. On the procedure: (§1) All experiments were performed on a Bio-Rad Proteon XPR36 surface Plasmon resonance biosensor (Bio-Rad, Hercules, Calif.). […] The analysis temperature for the immobilization was 25° C. and the running buffer was HBS-T+(10 mM HEPES, 150 mM NaCl, 0.05% Tween-20, pH 7.4). Channels were activated in the analyte (horizontal) direction by injecting a mixture of 1 mM ECD and 0.25 mM NHS for 3 minutes at a flow rate of 30 μL/min. IgGs were immobilized on the activated spots by injecting them in the ligand (vertical) direction at 20 μg/mL in 10 mM Acetate pH 4.5 buffer for 1.5 minutes at […]. The activated surfaces were blocked by injecting 1M ethanolamine, pH 8.5 in the analyte direction for 3 minutes at 30 μL/min.
(§2) The analysis temperature for the BCMA binding analysis was 37° C. or 25° C. in a running buffer of HBS-T+, supplemented with 1 mg/mL BSA. A kinetic titration method was employed for the interaction analysis as described in Abdiche, et al. Human BCMA (huBCMA) or cynomolgus monkey BCMA (cyBCMA) analyte was injected in the analyte direction using a series of injections from low to high concentration. The concentrations used were 0.08 nM, 0.4 nM, 2 nM, 10 nM and 50 nM (a 5-membered series, with a 5-fold dilution factor and top concentration of 50 nM). The association time for a given analyte dilution was two minutes. Immediately after the 50 nM BCMA injection, dissociation was monitored for 2 hours.
(§3) The sensorgrams were double-referenced and fit to a 1:1 Langmuir with mass transport kinetic titration model in BIAevaluation Software version 4.1.1 (GE Lifesciences, Piscataway, N.J.).

The next experiment deals with T2, Human BCMA (human, UniProt Q02223 1-54, limits assumed).
T2 construct: also called huBCMA; B-cell maturation antigen
T2 sequence (looked up): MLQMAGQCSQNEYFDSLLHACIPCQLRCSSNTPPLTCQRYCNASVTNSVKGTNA
The experiment can be described thus: SPR, IgG immobilised, human BCMA analyte. On the procedure:
as §1, §2, §3

B1: C01_Rd4_0.6nM_C03 (antibody, V domains shown)
VH: EVQLLESGGGLVQPGGSLRLSCAASGFTFSSYPMSWVRQAPGKGLEWVSAIGGSGGSLPYADSVKGRFTISRDNSKNTLYLQMNSLRAEDTAVYYCARYWPMDSWGQGTLVTVSS
VL: EIVLTQSPGTLSLSPGERATLSCRASCDVSSTYLAWYQQKPGQAPRLLIYDASSRAPGIPDRFSGSGSGTDFTLTISRLEPEDFAVYYCQQYMRSPLTFGQGTKVEIK
notes: IgG
In the case of B1, in the experiment with Cynomolgus monkey BCMA, the Kd was 2.53 nM, the koff worked out at 0.0119 s⁻¹ and the on-rate constant (kon) came to 4.72e+06 M⁻¹ s⁻¹. In the experiment with Human BCMA, this molecule came in with a Kd of 0.964 nM, a koff of 0.015 s⁻¹ and a kon of 1.55e+07 M⁻¹ s⁻¹.

B2: C01_Rd4_0.6nM_C16 (antibody, V domains shown)
VH: EVQLLESGGGLVQPGGSLRLSCAASGFTFSSYPMSWVRQAPGKGLEWVSAIGGSGGSLPYADSVKGRFTISRDNSKNTLYLQMNSLRAEDTAVYYCARYWPMDSWGQGTLVTVSS
VL: EIVLTQSPGTLSLSPGERATLSCRASQSVSSTYLAWYQQKPGQAPRLLIYDASSRAPGIPDRFSGSGSGTDFTLTISRLEPEDFAVYYCQQYSSWPLTFGQGTKVEIK
notes: IgG
As to B2, in the experiment with Cynomolgus monkey BCMA, the Kd turned out to be 0.939 nM, the koff is 0.00464 s⁻¹ and the on-rate (kon) is 4.95e+06 M⁻¹ s⁻¹. Besides, in the experiment with Human BCMA, the Kd came out at 0.407 nM, the dissociation rate constant (koff) is 0.0063 s⁻¹ and the kon came out at 1.55e+07 M⁻¹ s⁻¹.

B3: C01_Rd4_0.6nM_C06 (antibody, V domains shown)
VH: EVQLLESGGGLVQPGGSLRLSCAASGFTFSSYPMSWVRQAPGKGLEWVSAIGGSGGSLPYADSVKGRFTISRDNSKNTLYLQMNSLRAEDTAVYYCARYWPMDSWGQGTLVTVSS
VL: EIVLTQSPGTLSLSPGERATLSCRASEAVPSTYLAWYQQKPGQAPRLLIYDASSRAPGIPDRFSGSGSGTDFTLTISRLEPEDFAVYYCQQYSAFPLTFGQGTKVEIK
notes: IgG
In the experiment with Cynomolgus monkey BCMA, B3 came in with a Kd of 1.95 nM, a koff of 0.0121 s⁻¹ and an on-rate constant (kon) of 6.22e+06 M⁻¹ s⁻¹. In the experiment with Human BCMA, this molecule came in with a Kd of 0.847 nM, a koff of 0.0154 s⁻¹ and a kon of 1.82e+07 M⁻¹ s⁻¹.

B4: COMBO_Rd4_0.6nM_C02 (antibody, V domains shown)
VH: EVQLLESGGGLVQPGGSLRLSCAASGFTFSSYPMSWVRQAPGKGLEWVSAIGGSGGSLPYADSVKGRFTISRDNSKNTLYLQMNSLRAEDTAVYYCARYWPMDSWGQGTLVTVSS
VL: EIVLTQSPGTLSLSPGERATLSCRASIAVSSTYLAWYQQKPGQAPRLLMYDASIRATGIPDRFSGSGSGTDFTLTISRLEPEDFAVYYCQQYMVWPLTFGQGTKVEIK
notes: IgG
In the experiment with Cynomolgus monkey BCMA, B4 returned a dissociation constant (Kd) of 0.164 nM, a koff of 0.000494 s⁻¹ and a kon of 3.01e+06 M⁻¹ s⁻¹. In the experiment with Human BCMA, this molecule showed a dissociation constant (Kd) of 0.022 nM, an off-rate (koff) of 0.000185 s⁻¹ and a kon of 8.57e+06 M⁻¹ s⁻¹.

B5: C01_Rd4_6nM_C10 (antibody, V domains shown)
VH: EVQLLESGGGLVQPGGSLRLSCAASGFTFSSYPMSWVRQAPGKGLEWVSAIGGSGGSLPYADSVKGRFTISRDNSKNTLYLQMNSLRAEDTAVYYCARYWPMDSWGQGTLVTVSS
VL: EIVLTQSPGTLSLSPGERATLSCRASQSVSSVYLAWYQQKPGQAPRLLIYDASSRAPGIPDRFSGSGSGTDFTLTISRLEPEDFAVYYCQQYSTWPLTFGQGTKVEIK
notes: IgG
Turning to B5, in the experiment with Cynomolgus monkey BCMA, the Kd came out at 0.493 nM, the dissociation rate constant (koff) was 0.00219 s⁻¹ and the kon was 4.44e+06 M⁻¹ s⁻¹. Besides, in the experiment with Human BCMA, binding was put at a Kd of 0.162 nM, the koff came to 0.00212 s⁻¹ and the association rate constant (kon) stood at 1.31e+07 M⁻¹ s⁻¹.

B6: C01_Rd4_6nM_C26 (antibody, V domains shown)
VH: EVQLLESGGGLVQPGGSLRLSCAASGFTFSSYPMSWVRQAPGKGLEWVSAIGGSGGSLPYADSVKGRFTISRDNSKNTLYLQMNSLRAEDTAVYYCARYWPMDSWGQGTLVTVSS
VL: EIVLTQSPGTLSLSPGERATLSCRASQSVSALYLAWYQQKPGQAPRLLIYDASSRAPGIPDRFSGSGSGTDFTLTISRLEPEDFAVYYCQQYSAWPLTFGQGTKVEIK
notes: IgG
For B6, in the experiment with Cynomolgus monkey BCMA, binding was characterised by a dissociation constant (Kd) of 0.419 nM, the koff was determined as 0.00199 s⁻¹ and the kon was determined as 4.75e+06 M⁻¹ s⁻¹. Also, in the experiment with Human BCMA, binding was characterised by a dissociation constant (Kd) of 0.09 nM, the koff turned out to be 0.00136 s⁻¹ and the kon is 1.5e+07 M⁻¹ s⁻¹.

B7: C01_Rd4_0.6nM_C27 (antibody, V domains shown)
VH: EVQLLESGGGLVQPGGSLRLSCAASGFTFSSYPMSWVRQAPGKGLEWVSAIGGSGGSLPYADSVKGRFTISRDNSKNTLYLQMNSLRAEDTAVYYCARYWPMDSWGQGTLVTVSS
VL: EIVLTQSPGTLSLSPGERATLSCRASQSVSSTYLAWYQQKPGQAPRLLIYDASSRAPGIPDRFSGSGSGTDFTLTISRLEPEDFAVYYCQQYSRWPLTFGQGTKVEIK
notes: IgG
For the molecule B7, in the experiment with Cynomolgus monkey BCMA, the Kd stood at 0.852 nM, the koff was 0.00285 s⁻¹ and the kon came out at 3.34e+06 M⁻¹ s⁻¹. Also, in the experiment with Human BCMA, the Kd stood at 0.303 nM, the dissociation rate constant (koff) worked out at 0.00374 s⁻¹ and the kon is 1.23e+07 M⁻¹ s⁻¹.

B8: C01_Rd4_6nM_C12 (antibody, V domains shown)
VH: EVQLLESGGGLVQPGGSLRLSCAASGFTFSSYPMSWVRQAPGKGLEWVSAIGGSGGWSYYADSVKGRFTISRDNSKNTLYLQMNSLRAEDTAVYYCARYWPMDSWGQGTLVTVSS
VL: EIVLTQSPGTLSLSPGERATLSCWLSQSVSSTYLAWYQQKPGQAPRLLIYDASSRAPGIPDRFSGSGSGTDFTLTISRLEPEDFAVYYCQQYSEWPLTFGQGTKVEIK
notes: IgG; also called PC1C12
In the experiment with Cynomolgus monkey BCMA, B8 showed a Kd of 0.82 nM, a dissociation rate constant (koff) of 0.0037 s⁻¹ and an on-rate constant (kon) of 4.51e+06 M⁻¹ s⁻¹. In the experiment with Human BCMA, this molecule had a dissociation constant Kd of 0.535 nM, a koff of 0.00649 s⁻¹ and an on-rate (kon) of 1.21e+07 M⁻¹ s⁻¹.

B9: C01_Rd4_6nM_C20 (antibody, V domains shown)
VH: EVQLLESGGGLVQPGGSLRLSCAASGFTFSSYPMSWVRQAPGKGLEWVSAIGGSGGSLPYADSVKGRFTISRDNSKNTLYLQMNSLRAEDTAVYYCARYWPMDSWGQGTLVTVSS
VL: EIVLTQSPGTLSLSPGERATLSCRASQSVSPLYLAWYQQKPGQAPRLLIYDASSRAPGIPDRFSGSGSGTDFTLTISRLEPEDFAVYYCQQYSAFPLTFGQGTKVEIK
notes: IgG
Turning to B9, in the experiment with Cynomolgus monkey BCMA, binding was characterised by a dissociation constant (Kd) of 1.74 nM, the koff was found to be 0.00625 s⁻¹ and the association rate constant (kon) was 3.6e+06 M⁻¹ s⁻¹. Besides, in the experiment with Human BCMA, binding was characterised by a dissociation constant (Kd) of 0.459 nM, the koff came to 0.00276 s⁻¹ and the kon stood at 6.02e+06 M⁻¹ s⁻¹.

B10: C01_Rd4_6nM_C09 (antibody, V domains shown)
VH: EVQLLESGGGLVQPGGSLRLSCAASGFTFSSYPMSWVRQAPGKGLEWVSATVGSGGSIGYADSVKGRFTISRDNSKNTLYLQMNSLRAEDTAVYYCARYWPMDSWGQGTLVTVSS
VL: EIVLTQSPGTLSLSPGERATLSCACSQSVSSTYLAWYQQKPGQAPRLLIYDASSRAPGIPDRFSGSGSGTDFTLTISRLEPEDFAVYYCQQYSAWPLTFGQGTKVEIK
notes: IgG
In the experiment with Cynomolgus monkey BCMA, B10 registered a dissociation constant (Kd) of 2.33 nM, an off-rate (koff) of 0.00868 s⁻¹ and a kon of 3.73e+06 M⁻¹ s⁻¹. In the experiment with Human BCMA, the Kd was 0.811 nM, the dissociation rate constant (koff) stood at 0.0128 s⁻¹ and the on-rate (kon) amounted to 1.58e+07 M⁻¹ s⁻¹.

B11: C01_Rd4_0.6nM_C09 (antibody, V domains shown)
VH: EVQLLESGGGLVQPGGSLRLSCAASGFTFSSYPMSWVRQAPGKGLEWVSAIGGSGGSLPYADSVKGRFTISRDNSKNTLYLQMNSLRAEDTAVYYCARYWPMDSWGQGTLVTVSS
VL: EIVLTQSPGTLSLSPGERATLSCRASQSVSSLFLAWYQQKPGQAPRLLIYDASSRAPGIPDRFSGSGSGTDFTLTISRLEPEDFAVYYCQQYSAWPLTFGQGTKVEIK
notes: IgG
In the experiment with Cynomolgus monkey BCMA, B11 showed a dissociation constant (Kd) of 1.77 nM, an off-rate (koff) of 0.00936 s⁻¹ and a kon of 5.28e+06 M⁻¹ s⁻¹. In the experiment with Human BCMA, this molecule came in with a dissociation constant (Kd) of 0.545 nM, a dissociation rate constant (koff) of 0.00825 s⁻¹ and an association rate constant (kon) of 1.51e+07 M⁻¹ s⁻¹.

B12: C01_Rd4_6nM_C04 (antibody, V domains shown)
VH: EVQLLESGGGLVQPGGSLRLSCAASGFTFSSYPMSWVRQAPGKGLEWVSAIGGSGGSLPYADSVKGRFTISRDNSKNTLYLQMNSLRAEDTAVYYCARYWPMDSWGQGTLVTVSS
VL: EIVLTQSPGTLSLSPGERATLSCCSSQSVSSTYLAWYQQKPGQAPRLLIYDASSRAPGIPDRFSGSGSGTDFTLTISRLEPEDFAVYYCQQYSAFPLTFGQGTKVEIK
notes: IgG
In the experiment with Cynomolgus monkey BCMA, B12 had a Kd of 5.16 nM, a koff of 0.0327 s⁻¹ and a kon of 6.34e+06 M⁻¹ s⁻¹. In the experiment with Human BCMA, this molecule gave an equilibrium dissociation constant (Kd) of 2.13 nM, a koff of 0.0497 s⁻¹ and an association rate constant (kon) of 2.33e+07 M⁻¹ s⁻¹.

B13: C01_Rd4_6nM_C24 (antibody, V domains shown)
VH: EVQLLESGGGLVQPGGSLRLSCAASGFTFSSYPMSWVRQAPGKGLEWVSAIGGSGGSLPYADSVKGRFTISRDNSKNTLYLQMNSLRAEDTAVYYCARYWPMDSWGQGTLVTVSS
VL: EIVLTQSPGTLSLSPGERATLSCRASQSVSPEYLAWYQQKPGQAPRLLIYDASSRAPGIPDRFSGSGSGTDFTLTISRLEPEDFAVYYCQQYSVWPLTFGQGTKVEIK
notes: IgG
In the experiment with Cynomolgus monkey BCMA, B13 had a Kd of 0.281 nM, a koff of 0.000891 s⁻¹ and an on-rate (kon) of 3.17e+06 M⁻¹ s⁻¹. Besides, in the experiment with Human BCMA, the Kd came out at 0.467 nM, the koff came to 0.00348 s⁻¹ and the kon is 7.47e+06 M⁻¹ s⁻¹.

Source of the values: patent US20160297884A1 (Pfizer, published 2016).
